The values that follow come from patent US20250262210A1 (TRUSTEES OF COLUMBIA UNIVERSITY IN THE CITY OF NEW YORK, published 2025).

The target of one assay is SKIV2L (human, UniProt Q15477 1-1246). Briefly: IP/MS, LZTR1 wild type-FLAG, U87. Put shortly: (§1)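 Read-out: spectral counts from LC-MS/MS (Orbitrap Fusion) after MaxQuant identification. Variable modifications were Met oxidation, protein N-terminal acetylation and N/Q deamidation.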
The next assay addresses T1, RNF123 (human, UniProt Q5XPI4 2-1314, limits assumed).
T1 sequence (looked up): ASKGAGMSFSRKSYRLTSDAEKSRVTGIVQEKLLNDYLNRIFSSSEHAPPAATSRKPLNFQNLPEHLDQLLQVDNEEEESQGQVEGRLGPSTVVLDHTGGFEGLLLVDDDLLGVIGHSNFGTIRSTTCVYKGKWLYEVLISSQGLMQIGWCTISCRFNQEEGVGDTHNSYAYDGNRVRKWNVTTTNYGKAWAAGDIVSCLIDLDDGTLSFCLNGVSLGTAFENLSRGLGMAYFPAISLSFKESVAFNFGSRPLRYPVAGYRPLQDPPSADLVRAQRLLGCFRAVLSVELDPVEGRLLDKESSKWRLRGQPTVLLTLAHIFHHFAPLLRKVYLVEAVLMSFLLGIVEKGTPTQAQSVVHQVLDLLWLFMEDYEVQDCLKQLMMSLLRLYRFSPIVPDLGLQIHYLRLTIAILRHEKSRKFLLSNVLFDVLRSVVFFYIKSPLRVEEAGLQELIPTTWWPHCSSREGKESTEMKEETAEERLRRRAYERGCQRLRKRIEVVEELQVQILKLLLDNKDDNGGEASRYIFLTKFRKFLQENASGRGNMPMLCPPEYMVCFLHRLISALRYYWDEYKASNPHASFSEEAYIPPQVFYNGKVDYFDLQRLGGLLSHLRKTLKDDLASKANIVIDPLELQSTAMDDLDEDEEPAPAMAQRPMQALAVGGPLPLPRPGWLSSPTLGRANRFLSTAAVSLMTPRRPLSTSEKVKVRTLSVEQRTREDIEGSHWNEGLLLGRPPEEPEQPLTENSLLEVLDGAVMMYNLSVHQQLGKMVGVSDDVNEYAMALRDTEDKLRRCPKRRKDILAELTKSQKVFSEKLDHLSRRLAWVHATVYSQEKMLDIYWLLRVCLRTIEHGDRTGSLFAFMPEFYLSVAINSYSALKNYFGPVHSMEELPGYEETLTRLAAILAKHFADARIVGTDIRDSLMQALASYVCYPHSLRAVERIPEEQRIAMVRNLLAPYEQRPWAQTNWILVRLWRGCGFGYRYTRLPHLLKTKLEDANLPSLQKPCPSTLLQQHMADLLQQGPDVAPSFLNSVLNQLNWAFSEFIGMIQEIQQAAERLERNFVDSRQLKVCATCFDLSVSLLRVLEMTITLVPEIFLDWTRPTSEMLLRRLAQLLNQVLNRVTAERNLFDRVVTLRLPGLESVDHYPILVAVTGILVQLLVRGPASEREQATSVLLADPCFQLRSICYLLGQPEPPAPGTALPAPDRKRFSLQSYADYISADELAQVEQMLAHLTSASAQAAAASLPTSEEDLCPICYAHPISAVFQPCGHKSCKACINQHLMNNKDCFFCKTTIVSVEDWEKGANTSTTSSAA
The assay is described as follows: IP/MS, LZTR1 wild type-FLAG, U87. The method in brief:
as §1

Chain of SKIV2L (Q15477 whole entry, the tested form may be a part): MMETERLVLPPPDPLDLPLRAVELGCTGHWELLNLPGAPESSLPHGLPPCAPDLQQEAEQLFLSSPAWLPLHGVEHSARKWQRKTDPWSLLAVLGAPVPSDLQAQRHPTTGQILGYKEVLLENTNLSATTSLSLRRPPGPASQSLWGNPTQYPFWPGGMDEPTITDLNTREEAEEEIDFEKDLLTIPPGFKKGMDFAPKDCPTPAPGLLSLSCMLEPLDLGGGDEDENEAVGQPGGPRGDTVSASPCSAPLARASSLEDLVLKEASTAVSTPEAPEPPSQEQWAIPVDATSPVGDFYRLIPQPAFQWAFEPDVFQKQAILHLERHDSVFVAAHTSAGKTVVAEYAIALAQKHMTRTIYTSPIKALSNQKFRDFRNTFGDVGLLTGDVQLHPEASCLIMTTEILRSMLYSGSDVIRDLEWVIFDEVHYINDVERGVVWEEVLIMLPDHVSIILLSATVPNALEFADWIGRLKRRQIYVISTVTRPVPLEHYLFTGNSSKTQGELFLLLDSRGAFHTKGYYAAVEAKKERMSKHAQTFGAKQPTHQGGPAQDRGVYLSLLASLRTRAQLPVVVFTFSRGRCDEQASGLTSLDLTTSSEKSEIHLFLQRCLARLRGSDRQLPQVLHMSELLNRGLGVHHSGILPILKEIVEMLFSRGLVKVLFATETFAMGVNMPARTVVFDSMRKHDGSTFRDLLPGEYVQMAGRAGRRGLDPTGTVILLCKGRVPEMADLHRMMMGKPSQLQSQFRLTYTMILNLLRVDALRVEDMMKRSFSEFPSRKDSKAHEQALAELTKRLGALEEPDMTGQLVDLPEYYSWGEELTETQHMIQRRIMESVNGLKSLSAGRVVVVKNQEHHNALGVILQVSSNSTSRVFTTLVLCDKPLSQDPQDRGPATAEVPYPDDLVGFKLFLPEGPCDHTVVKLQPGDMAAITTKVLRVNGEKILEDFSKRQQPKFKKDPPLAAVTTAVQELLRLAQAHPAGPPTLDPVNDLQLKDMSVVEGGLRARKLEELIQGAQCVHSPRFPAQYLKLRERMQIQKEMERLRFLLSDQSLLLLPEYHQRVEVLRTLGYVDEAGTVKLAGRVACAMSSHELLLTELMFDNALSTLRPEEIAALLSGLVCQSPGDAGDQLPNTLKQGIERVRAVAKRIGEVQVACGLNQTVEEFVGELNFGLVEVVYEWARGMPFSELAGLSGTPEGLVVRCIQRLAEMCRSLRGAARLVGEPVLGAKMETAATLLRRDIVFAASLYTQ

B1: LZTR1-FLAG (other, human, UniProt Q8N653 1-840, looked up)
chain: MAGPGSTGGQIGAAALAGGARSKVAPSVDFDHSCSDSVEYLTLNFGPFETVHRWRRLPPCDEFVGARRSKHTVVAYKDAIYVFGGDNGKTMLNDLLRFDVKDCSWCRAFTTGTPPAPRYHHSAVVYGSSMFVFGGYTGDIYSNSNLKNKNDLFEYKFATGQWTEWKIEGRLPVARSAHGATVYSDKLWIFAGYDGNARLNDMWTIGLQDRELTCWEEVAQSGEIPPSCCNFPVAVCRDKMFVFSGQSGAKITNNLFQFEFKDKTWTRIPTEHLLRGSPPPPQRRYGHTMVAFDRHLYVFGGAADNTLPNELHCYDVDFQTWEVVQPSSDSEVGGAEVPERACASEEVPTLTYEERVGFKKSRDVFGLDFGTTSAKQPTQPASELPSGRLFHAAAVISDAMYIFGGTVDNNIRSGEMYRFQFSCYPKCTLHEDYGRLWESRQFCDVEFVLGEKEECVQGHVAIVTARSRWLRRKITQARERLAQKLEQEAAPVPREAPGVAAGGARPPLLHVAIREAEARPFEVLMQFLYTDKIKYPRKGHVEDVLLIMDVYKLALSFQLCRLEQLCRQYIEASVDLQNVLVVCESAARLQLSQLKEHCLNFVVKESHFNQVIMMKEFERLSSPLIVEIVRRKQQPPPRTPLDQPVDIGTSLIQDMKAYLEGAGAEFCDITLLLDGHPRPAHKAILAARSSYFEAMFRSFMPEDGQVNISIGEMVPSRQAFESMLRYIYYGEVNMPPEDSLYLFAAPYYYGFYNNRLQAYCKQNLEMNVTVQNVLQILEAADKTQALDMKRHCLHIIVHQFTKVSKLPTLRSLSQQLLLDIIDSLASHISDKQCAELGADI
notes: Expressed in HEK 293T, HeLa or U87 cells; used as cell lysate; also called LZTR1 wild type-FLAG; LZTR1 WT; not shown: FLAG tag at the C-terminus
As for B1, the binding result with SKIV2L and with RNF123 was “binds” throughout.
